One block for each binder: values may come before it.
Assays:
[1] = molecular target: T1, Recombinant hPD1 (Sino Biologicals, reference 10377-H08H) (human, UniProt Q15116 25-167); experiment: ELISA, recombinant human PD-1 immobilised, anti-human Fc peroxidase
T1 construct: Bought reagent, immobilised on plastic; also called Human recombinant PD-1; rPD1
Experimental: (§1) A. PD-1 binding ELISA assay. Human recombinant PD-1 (rPD1) protein was immobilized, and antibodies were added at different concentrations. Revelation was performed with an anti-human Fc antibody coupled to peroxidase. Colorimetry was determined at 450 nm using TMB substrate. […] All constructions tested comprise a […] linker between the Fc and IL-7 domain.
For activity ELISA assay, recombinant hPD1 (Sino Biologicals, Beijing, China; reference 10377-H08H) was immobilized on plastic at 0.5 μg/ml in carbonate buffer (pH9.2) and purified antibody were added to measure binding.

[2] = molecular target: T2, biotinylated Human PD1 (AcroBiosystems, reference EP-101) (human, UniProt Q15116 25-167, limits assumed, biotinylated); experiment: competitive ELISA, PD-L1 immobilised, antibody mixed with biotinylated human PD-1; PD1/PDL1 antagonist activity
T2 construct: also called biotinylated recombinant human PD-1; Biotin-PD-1Fc
T2 sequence (Q15116 25-167 limits assumed): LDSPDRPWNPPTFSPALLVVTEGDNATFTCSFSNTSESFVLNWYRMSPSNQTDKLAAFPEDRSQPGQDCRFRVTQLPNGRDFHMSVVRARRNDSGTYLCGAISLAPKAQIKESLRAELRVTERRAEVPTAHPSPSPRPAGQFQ
Experimental: as §1
Purified antibody (at different concentrations) were mixed with 0.66 μg/ml final (fix concentration) of biotinylated Human PD1 (AcroBiosystems; USA; reference EP-101) to measure competitive binding for 2 h at 37° C.

[3] = molecular target: T3, PD-1 expressed on cells (UniProt Q15116 25-288); experiment: flow cytometry, 1:1 co-culture of U937 PD-1+ and U937 PD-1- cells, detection with anti-human IgG PE, % positive cells
T3 construct: whole, on cells; also called U937 PD-1+ cells; U937 PD-1+ CD127+ cells
T3 sequence (Q15116 25-288): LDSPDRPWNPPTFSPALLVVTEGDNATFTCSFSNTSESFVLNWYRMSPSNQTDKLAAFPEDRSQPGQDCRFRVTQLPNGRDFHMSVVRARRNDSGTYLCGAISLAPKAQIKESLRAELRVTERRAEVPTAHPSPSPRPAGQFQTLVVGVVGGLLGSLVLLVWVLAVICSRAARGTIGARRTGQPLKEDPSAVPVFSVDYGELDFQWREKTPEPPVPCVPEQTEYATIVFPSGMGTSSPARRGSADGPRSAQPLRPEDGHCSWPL

[4] = molecular target: T3, PD-1 expressed on cells; experiment: flow cytometry (FACs analysis), U937 PD-1+ CD127+ cells co-cultured with U937 PD-1- CD127+ cells, detection with anti-human IgG PE, % cell binding
Experimental: (§2) U937 cells expressing CD127+ or co-expressing CD127+ and PD-1+ cells were stained with a cell proliferation dye (CPDe450 or CPDe670) and co-cultivated at ratio 1:1 prior incubation with different concentrations of anti PD-1 IL-7 bifunctional molecules. Staining with and anti-human IgG PE and pSTAT5 activation was quantified after incubation by flow cytometry. A. EC50 binding (nM) was calculated for each cell type and each construction. B. EC50 pSTAT5 (nM) was calculated for each cell type and each construction.
(§3) Finally, the specific cis-targeting and cis-activity of the different anti PD-1 IL-7 constructions were analyzed in a co-culture assay. U937 PD-1+ CD127+ cells were mixed with PD-1− CD127+ cells (ratio 1:1), then incubated with the different constructions at escalating doses. The binding and the IL-7R signaling (pSTAT5) was quantified by flow cytometry. EC50 (nM) of the binding and the pSTAT5 activation was determined for each construction and for each PD-1+ and PD-1− cell population (FIG. 4A and B).
(§4) U937 transduced with CD127 and PD-1 were mixed with U937 transduced with CD127+ only.

[5] = molecular target: T3, PD-1 expressed on cells; experiment: flow cytometry, 1:1 co-culture of U937 PD-1+ and U937 PD-1- cells, detection with anti-human IgG PE, % positive cells [middle panel]
[6] = molecular target: T3, PD-1 expressed on cells; experiment: flow cytometry (FACs analysis), U937 PD-1+ CD127+ cells co-cultured with U937 PD-1- CD127+ cells, detection with anti-human IgG PE, % cell binding; remark: listed apart in the source
Experimental: as §2, §3, §4

T1 sequence (Q15116 25-167 limits assumed): as the sequence (Q15116 25-167 limits assumed) above

EC50 [1]: 0.238 nM
EC50 [2]: 5.01 nM
EC50 (read off the curve) [3]: ~0.02 nM
B1: anti PD-1*1 (antibody, human IgG1, kappa, N297A)
chain: DKTHTCPPCPAPELLGGPSVFLFPPKPKDTLMISRTPEVTCVVVDVSHEDPEVKFNWYVDGVEVHNAKTKPREEQYASTYRVVSVLTVLHQDWLNGKEYKCKVSNKALPAPIEKTISKAKGQPREPQVYTLPPCRDELTKNQVSLWCLVKGFYPSDIAVEWESNGQPENNYKTTPPVLDSDGSFFLYSKLTVDKSRWQQGNVFSCSVMHEALHNHYTQKSLSLSPGK
heavy: not shown
light: DVVMTQSPLSLPVTLGQPASISCRSSQSLVHANTNTYLEWYQQRPGQSPRLLIYKVSNRFSGVPDRFSGSGSGTDFTLKISRVEAEDVGVYYCFQGTHVPNTFGQGTKLEIKRTVAAPSVFIFPPSDEQLKSGTASVVCLLNNFYPREAKVQWKVDNALQSGNSQESVTEQDSKDSTYSLSSTLTLSKADYEKHKVYACEVTHQGLSSPVTKSFNRGEC
notes: One-armed control: like construction 3 but without IL-7; Chain A is the Fc chain (knob), chain B the anti PD-1 heavy chain (hole)

EC50 (read off the curve) [4]: ~0.02 nM
EC50 [1]: 0.021 nM
EC50 (read off the curve) [5]: ~0.005 nM
EC50 (read off the curve) [6]: ~0.02 nM
B2: anti PD-1*2 (antibody, human IgG4 S228P, kappa, V domains shown)
VH: QIQLVQSGSELKKPGASVKVSCKASGYTFTHYAMNWVRQAPGQGLEWMGWINTNTGEPTYAQGFTGRFVFSLDTSVSTAYLQISSLKAEDTAVYYCAREREPGMDNWGQGTLVTVSS
VL: DVVMTQSPLSLPVTLGQPASISCRSSQSLVHANTNTYLEWYQQRPGQSPRLLIYKVSNRFSGVPDRFSGSGSGTDFTLKISRVEAEDVGVYYCFQGTHVPNTFGQGTKLEIKR
notes: Anti PD-1 antibody with 2 anti PD-1 arms and no cytokine; also called anti PD-1 alone; anti PD-1 control

From US20240182571A1 (OSE IMMUNOTHERAPEUTICS, published 2024)
